In this experiment the test system is chromatin-bound replication proteins. Nature of the experiment: Chromatin mass spectrometry (CHROMASS) from TopBP1-depleted Xenopus egg extracts. Conditions: mass spectrometry and immunoblotting; 75 min after starting replication, aphidicolin added, TopBP1 6 ng/µl; n = 4 for MS. Type of experiment: biochemical, Xenopus laevis. As to the method: Fig. 6 GINS binding to TopBP1 is required for the origin firing step of replication. a–c Heat map showing the intensity of chromatin-bound proteins recovered from TopBP1-depleted interphase Xenopus egg extracts supplemented wild type or mutant TopBP1 determined by quantitative mass spectrometry. Chromatin was isolated 75 min after sperm addition. All extracts contained […] aphidicolin and, where indicated, […] geminin. […] For the intensities of all proteins see Supplementary Data 2. b, c Volcano plots highlighting a selection of differentially detected proteins in samples described in (a). Log2 transformed LFQ intensities from four replicates each were analysed by a two-sided Student’s t-test. […] Coomassie staining of the gel part containing histones served as a loading control.
For chromatin isolation, XTopBP1-depleted interphase egg extract was supplemented with 50 µg/ml aphidicolin and aliquoted into 15 µl samples before addition of buffer or recombinant TopBP1 to a final concentration 6 ng/µl. 2.25 µM Xgeminin or buffer were added before incubation for 10 min on ice. To start the replication, 9 ng sperm DNA/µl extract was added and incubated for 75 min at 23 °C. […] For MS analysis, four biological replicates of chromatin pellets were analysed by CHROMASS[45]. […]
A general note: In western blotting, separated proteins are transferred to a membrane and probed.

The values below come from paper PMC10899662, “TopBP1 utilises a bipartite GINS binding mode to support genome replication” (Nature Communications, 2024).

B1: TopBP1-BRCT0-5-WT: recombinant TopBP1 amino acids 1–766, strep-tagged (protein)
chain: MSRNDKEPFFVKFLKSSDNSKCFFKALESIKEFQSEEYLQIITEEEALKIKENDRSLYICDPFSGVVFDHLKKLGCRIVGPQVVIFCMHHQRCVPRAEHPVYNMVMSDVTISCTSLEKEKREEVHKYVQMMGGRVYRDLNVSVTHLIAGEVGSKKYLVAANLKKPILLPSWIKTLWEKSQEKKITRYTDINMEDFKCPIFLGCIICVTGLCGLDRKEVQQLTVKHGGQYMGQLKMNECTHLIVQEPKGQKYECAKRWNVHCVTTQWFFDSIEKGFCQDESIYKTEPRPEAKTMPNSSTPTSQINTIDSRTLSDVSNISNINASCVSESICNSLNSKLEPTLENLENLDVSAFQAPEDLLDGCRIYLCGFSGRKLDKLRRLINSGGGVRFNQLNEDVTHVIVGDYDDELKQFWNKSAHRPHVVGAKWLLECFSKGYMLSEEPYIHANYQPVEIPVSHKPESKAALLKKKNSSFSKKDFAPSEKHEQADEDLLSQYENGSSTVVEAKTSEARPFNDSTHAEPLNDSTHISLQEENQSSVSHCVPDVSTITEEGLFSQKSFLVLGFSNENESNIANIIKENAGKIMSLLSRTVADYAVVPLLGCEVEATVGEVVTNTWLVTCIDYQTLFDPKSNPLFTPVPVMTGMTPLEDCVISFSQCAGAEKESLTFLANLLGASVQEYFVRKSNAKKGMFASTHLILKERGGSKYEAAKKWNLPAVTIAWLLETARTGKRADESHFLIENSTKEERSLETEITNGINLNSDTAEHP
modifications: left off: Strep, C-terminal, kept
notes: recombinant TopBP1 amino acids 1–766, strep-tagged
As to B1, the “chromatin binding of replisome markers / Mcm2-7” value was “Several replisome markers, including GINS and Cdc45, were detected on chromatin”.
